{"source": "patent US20120073001A1", "about": "“METHODS AND COMPOSITIONS FOR […] OR […] […]” (THE JOHNS HOPKINS UNIVERSITY, published 2012)", "target": "T1, mouse MrgprC11, endogenous in wild-type DRG neurons (mouse)", "T1 chain": "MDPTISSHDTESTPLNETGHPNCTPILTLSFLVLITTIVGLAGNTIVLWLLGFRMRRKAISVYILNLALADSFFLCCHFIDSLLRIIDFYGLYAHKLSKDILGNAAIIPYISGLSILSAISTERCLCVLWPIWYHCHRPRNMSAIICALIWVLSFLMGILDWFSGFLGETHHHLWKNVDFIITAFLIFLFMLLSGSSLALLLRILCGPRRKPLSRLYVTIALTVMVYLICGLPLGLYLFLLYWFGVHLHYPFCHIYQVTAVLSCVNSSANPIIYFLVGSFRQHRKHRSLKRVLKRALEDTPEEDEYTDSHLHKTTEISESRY", "experiment": "cell-based or functional assay"}
{"binder": "VGRPEWWMDYQKRYG", "note": "[BAM8-22]", "values": [{"measurement": "increased [Ca2+]i, calcium imaging of WT and Mrgpr-cluster deletion DRG neurons", "value": "3.6 % of WT DRG neurons"}]}
